Data published in publication PMC6754583.

Molecular target: full-length von Willebrand factor (VWF) dimer, hetero-bifunctional construct (UniProt P04275)
Test: magnetic tweezers single-molecule force spectroscopy

full-length von Willebrand factor (VWF) dimer, hetero-bifunctional construct (from UniProt P04275 764-2813; P04275 764-2813) (natural protein)
mean dwell time between stem transitions (fits to individual datasets): 0.28 s
mean dwell time between stem transitions (global fit): 0.28 s
midpoint force F1/2 of stem opening: 1 pN
